Publication PMC8809517, “Cofactor-independent RNA editing by a synthetic S-type PPR protein”

T1: GFP-9S library array, motif 4 ND N98V;D124K (synthetic construct, N98V;D124K)
T1 chain: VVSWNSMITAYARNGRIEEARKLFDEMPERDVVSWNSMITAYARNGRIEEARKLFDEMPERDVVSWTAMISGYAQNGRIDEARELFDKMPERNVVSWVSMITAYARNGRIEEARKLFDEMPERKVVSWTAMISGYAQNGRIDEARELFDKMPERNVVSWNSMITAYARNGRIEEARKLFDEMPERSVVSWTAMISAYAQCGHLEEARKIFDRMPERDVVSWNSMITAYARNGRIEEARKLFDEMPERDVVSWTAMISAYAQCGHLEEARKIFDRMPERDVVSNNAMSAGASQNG

T2: GFP-9S library array, motif 4 ND N98E;D124I (synthetic construct, N98E;D124I)
T2 chain: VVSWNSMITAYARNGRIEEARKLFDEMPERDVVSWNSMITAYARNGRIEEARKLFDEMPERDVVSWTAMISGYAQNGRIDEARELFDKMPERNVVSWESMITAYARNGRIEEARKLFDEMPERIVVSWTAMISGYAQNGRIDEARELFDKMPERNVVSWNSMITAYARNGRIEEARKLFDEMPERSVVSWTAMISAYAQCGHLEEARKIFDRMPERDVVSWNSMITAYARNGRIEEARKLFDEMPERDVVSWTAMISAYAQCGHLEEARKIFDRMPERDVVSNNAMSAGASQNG

T3: GFP-9S library array, motif 4 ND N98F;D124M (synthetic construct, N98F;D124M)
T3 chain: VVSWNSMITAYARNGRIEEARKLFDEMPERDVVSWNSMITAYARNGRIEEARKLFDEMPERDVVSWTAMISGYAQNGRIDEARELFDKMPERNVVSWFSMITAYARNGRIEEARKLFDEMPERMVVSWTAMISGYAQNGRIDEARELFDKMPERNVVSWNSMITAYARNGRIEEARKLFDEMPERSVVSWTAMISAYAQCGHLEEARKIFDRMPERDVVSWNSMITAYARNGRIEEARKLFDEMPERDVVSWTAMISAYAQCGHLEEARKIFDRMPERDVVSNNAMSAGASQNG

T4: GFP-9S library array, motif 4 ND N98A;D124I (synthetic construct, N98A;D124I)
T4 chain: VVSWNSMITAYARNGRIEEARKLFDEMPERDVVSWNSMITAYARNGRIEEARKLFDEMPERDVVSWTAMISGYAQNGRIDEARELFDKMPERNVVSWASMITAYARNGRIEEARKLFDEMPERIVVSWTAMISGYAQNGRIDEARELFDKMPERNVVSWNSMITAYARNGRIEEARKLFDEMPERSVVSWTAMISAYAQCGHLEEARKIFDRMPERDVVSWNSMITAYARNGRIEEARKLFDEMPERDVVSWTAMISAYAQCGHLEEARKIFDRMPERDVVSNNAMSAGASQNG

T5: GFP-9S library array, motif 4 ND N98D;D124K (synthetic construct, N98D;D124K)
T5 chain: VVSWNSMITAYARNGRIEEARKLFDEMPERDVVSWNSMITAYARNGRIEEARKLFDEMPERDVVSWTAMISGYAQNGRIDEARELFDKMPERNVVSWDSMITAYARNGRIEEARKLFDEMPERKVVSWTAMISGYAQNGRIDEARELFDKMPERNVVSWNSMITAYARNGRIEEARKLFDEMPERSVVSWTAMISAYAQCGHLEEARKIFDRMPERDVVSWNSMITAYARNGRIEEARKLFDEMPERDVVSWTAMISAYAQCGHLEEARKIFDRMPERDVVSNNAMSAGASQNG


Experiments:
Assay in all cases: high-throughput RNA pulldown from lysate on Ni-NTA beads; HRP: 50 mM Tris pH 8, 150 mM NaCl, 1 mM beta-mercaptoethanol, 50 ug/ml BSA, 3 ug/ml yeast RNA, 0.5% heparin; ITC and FP: Tris pH 8, 200 mM KCl, 5% glycerol; MST: 50 mM Tris pH 8, 200 mM NaCl, 1 mM DTT, BSA, heparin, 0.05% Tween 20
Details in all cases: tags: N-terminal His-eGFP
[1] = target: T1, GFP-9S library array, motif 4 ND …
[2] = target: T2, GFP-9S library array, motif 4 ND …
[3] = target: T3, GFP-9S library array, motif 4 ND …
[4] = target: T4, GFP-9S library array, motif 4 ND …
[5] = target: T5, GFP-9S library array, motif 4 ND …

| Binder | Kd ([1]; label: 5' IRDye 800CW) | Kd ([2]; label: 5' IRDye 800CW) | Kd ([3]; label: 5' IRDye 800CW) | Kd ([4]; label: 5' IRDye 800CW) | Kd ([5]; label: 5' IRDye 800CW) | Kd ([1]; label: 5' Cy5) | Kd ([2]; label: 5' Cy5) | Kd ([3]; label: 5' Cy5) | Kd ([4]; label: 5' Cy5) | Kd ([5]; label: 5' Cy5) |
| --- | --- | --- | --- | --- | --- | --- | --- | --- | --- | --- |
| AUUAAACGUGA (ssRNA) [IR-rpoA-A] | 146 nM | 5140 nM | 230 nM | 203 nM | 334 nM | – | – | – | – | – |
| AUUACACGUGA (ssRNA) [Cy5-rpoA] | – | – | – | – | – | 97.1 nM | 4240 nM | 76.7 nM | 103 nM | 154 nM |
| AUUAUACGUGA (ssRNA) [IR-rpoA-U] | 128 nM | 4070 nM | 194 nM | 249 nM | 475 nM | – | – | – | – | – |
| AUUAGACGUGA (ssRNA) [Cy5-rpoA-G] | – | – | – | – | – | 91.4 nM | 3860 nM | 69.1 nM | 107 nM | 134 nM |
